Experimental findings from the DeepSol protein solubility set are described below.

This series can be described thus: soluble on expression in E. coli; label from the status in PepcDB or PDB records.
As to “MIDMFHINIPFKKDVIIEMGDCGFVDFAKLAEKTELKIACGNVEFSVVNDQKKVRTDDLYHPWSTIPSSYTDIACKVFDAEPRANVFWGYLQLKASPAKVMQGHNVYGSEDFRLCVEYLLDSLQKAQPELWELLDVGLAEMTRIDCTYSIKCANPDILRQTIKQMGNVSNRYIKPARNSDFETTLYFNRATKANPGAGRSFELCIYTKHDEIAHQLADLKRRARQGDSDRFNRIIDELSKPELQAFAANRLRFEGRAKKRFIQKHVGSANLWQVIRHAEQFEAKNGYRFCEWMFKTLFHDLLESLKGEELELYNDSKIKQLLRDAYSTMTPKLEHHHHHH”, the “soluble on expression in E. coli” value is reported as “soluble”.
The entry for “MGSDKIHHHHHHMDVTQLKMLHNAKVISEIKKGFSVDRKYQVDETYLVRVFPIDLLQERKQEFKIIQALDSQTPFVPKAYDFGFIEREGYMIISYLRGEDAESGMTHLSHSEQFKAGFSAGEILREVHKIPLDIPKMNWLDFQTAKFKRKVEELKELEITASFLTDTEKFVYKNIARLKNRPICLQHGDFHPANIILNNKKFVGLIDFNRLEFGDPLFDLAKIGFFTTEVSIPFARGNILGYIDKEEVTDFWNLYALYTAMHITSAVSWAAKNESRNFKKLMDYAVKTAASHDNFQKIVPNWMNEEEFK” is “not soluble”; for “MPILKHLLLKNRKQPMQKKFVATAVGYVPWGDGAAEYFYNLYEYEDGTRECEKFDGGQYYKIPENADFSTKAQVKAWIYGGAVPKSVLSYEALIDEMNENIKQRSQAGGEIDRQLEEALDKQLGRYKNNKKIKNYRKQLNLKHDSSALFLDGEEIYSVTACRINQKI” it is “not soluble”; for “MRAIRVHEVGGPEVLRLEELPVPEPGPGEVLVRLLAIGVNFIDTYKRKGLYPVPAPFTLGEEGAGVVEKVGEGVVGVRPGDRVAFANVQGAYAEYLVVPAERLVPVPEGLDPKLAAAALLQGMTVHYLLKSTYPVAPGDQVLVHAGAGGVGQLLIQWAKRLGATVYATASTEEKRGLCLQAGADYALPYEGFAEAVKALSGGGVDVVYDGVGKDTFLGSLAALRPRGMLVLFGQSSGPVPPQDPQILNRMGSLFLTRPTLHHYTASRKELLFRPGEVFRGVLKGWLKVRIGAEFPLENARKGPRGPRGPKDHGQGPPPALGRGNRAHFSGSGVVYYGPFQGLM” it is “soluble”.
The entry for “VIGADVPRDSQRARVYAAEAFVRTLFDRVTAHGSPTVEFFGTQLTLPPEGRFGSVASVQRYVDDVLALPAVGQNWPTVSPVRVRARRAATAAHYENHGGTGTIAVPDRHTAGWAMRELVVLHEVAHHLCQVPPPHGPEFVATVCTLTELVMGPEVGHVFRVVYAQEGVR” is “soluble”; for “MGSDKIHHHHHHMSTKHAKAAEKFLENPVMAAWHNETLWMVRAKRDKMSKEVPEWEELRDKACALKLYSNSHLEELLLEFEKNATANGAIVHWAKDAEEYRAIVYEILSSHGVKHFVKSKSMLAEECELNPFLIEKGIDVVESDLGERILQLMNLAPSHIVLPAIHIKREQVGELFEKEMGTEKGNFDPTYLTHAARKNLRNIFLNAEAAMTGANFAVASTGDIVVCTNEGNADMGTSCPTLNIAAFGMEKIVPDMEALGVFTRLLARSATGQPITTYTSQYRNPREGGEYHIIIVDNGRSALLAHPDHIKTLNCIRCGACMNTCPVYRRSGGYSYTYFIPGPIGINLGMAHDPEKYYDNLSACSLCMSCSDVCPAKVDLAEQIYKWRQDLDKIGKANTGKKIMSGGMKVLMDHPTLFNAALWAAPVVNHLPRFMKYNDLDAWGKGRELPKFAGESFNEMWKKNKVQGKEENK” it is “not soluble”.
The entry for “MGSDKIHHHHHHMAVEKSTSIKNNSIKTVNVAVAVIHYQNQYLLGFRAASQHQGNRYEFVGGKIDAHETAKQALIREVAEETGINIANNTAVKLGRLHHDYGDKQVCLQVYRIEVTAQQYAQYKNLSCGLEGQKLTWVDKAKLLAGHYDLPAANKTILVWLQLPVQITITYPLAHFNGFPNPRAAWSQYHHEHIAADALVYMRIKVAGAEDSIERLLQLRSDIKAIAPDHLHTDKADNAVINRQIIAGHLTQTQLMQWSSSVAKESMSYSALSTNLPLIVSCHDADSINAANQLAFFRLQQQLPPVIGIFLAPVECTQTHPDTPPLGWEAWSKLAELADMPVIGLGGLSPVMSEQAMLHGGIAVAGIRQFLK” is “not soluble”.
On to “MSQEALKAPVVVLGAGLASVSFVAELRQAGYQGLITVVGDEAERPYDRPPLSKDFMAHGDAEKIRLDCKRAPEVEWLLGVTAQSFDPQAHTVALSDGRTLPYGTLVLATGAAPRALPTLQGATMPVHTLRTLEDARRIQAGLRPQSRLLIVGGGVIGLELAATARTAGVHVSLVETQPRLMSRAAPATLADFVARYHAAQGVDLRFERSVTGSVDGVVLLDDGTRIAADMVVVGIGVLANDALARAAGLACDDGIFVDAYGRTTCPDVYALGDVTRQRNPLSGRFERIETWSNAQNQGIAVARHLVDPTAPGYAELPWYWSDQGALRIQVAGLASGDEEIVRGEVSLDAPKFTLIELQKGRIVGATCVNNARDFAPLRRLLAVGAKPDRAALADPATDLRKLAAAVAA”, for which the “soluble on expression in E. coli” value is reported as “soluble”.
Turning to “MSQLQEMMTVVSQREVAYNIFEMVLKGTLVDEMDLPGQFLHLAVPNGAMLLRRPISISSWDKRAKTCTILYRIGDETTGTYKLSKLESGAKVDVMGPLGNGFPVAEVTSTDKILIIGGGIGVPPLYELAKQLEKTGCQMTILLGFASENVKILENEFSNLKNVTLKIATDDGSYGTKGHVGMLMNEIDFEVDALYTCGAPAMLKAVAKKYDQLERLYISMESRMACGIGACYACVEHDKEDESHALKVCEDGPVFLGKQLSL”, the “soluble on expression in E. coli” value is “soluble”.
The entry for “MRGSHHHHHHGMASMTGGQQMGRDLYDDDDKDHPFTEGRSWPSAPDDSKAQAHRIHIDPEIQDGSPTTSRRPSGTGTGPEDGRPSLGSPYGKPPCFPVPHNGSSEATLPAQMSTLHVSPPPSADPAEASRGAGSRVDLGSEVYRMLREPAEPVAAEPKQSGSFRYLQGMLEAGEGGD” is “soluble”; for “PPIHPLTRAKLPDPYLMPVVSWNQSPQPPTTKEDALAKNPNREPIRCVDYHPFGVIGGRDILYGIVWGTRTA” it is “not soluble”; for “MLLALKGIRKVYRMGEVAFSALKGVDLEVEEGEMLAIMGPSGSGKSTLLHILGLLDRPTEGEYVLMDRPTSRLAEDERAFLRNRFLGFVFQAFFLLPRLSALENVEVPLAYAGVPPGTRRRRALELLERVGLLEKANNLPNQLSGGQRQRVAIARALALNPPLLLADEPTGALDTRTGEEILALFQELNREGTTVILVTHEPHVAEKTNRIVRVLDGEIVADERRHHG” it is “soluble”.
The entry for “MKRFDLRPLKAGIFERLEELIEKEMQPNEVAIFMFEVGDFSNIPKSAEFIQSKGHELLNSLRFNQADWTIVVRKKA” is “not soluble”.
On to “MGSDKIHHHHHHMSEALELLGQDIVARAPGVLGHSVAFGELTIVARAASVIDTLTFLRDDAACRFHQLIDLTGVDYPERAARFDVVYHLLSLVKNHRIRLKVSTDEDTPVPSVTPVFPVADWFEREAFDMYGIFFDGHPDLRRILTDYGFHGHPLRKDFPMTGYVEVRYDDELKRVVYEPVKITEFRAFDFLSPWEGAKYALPGDEKAQ”, for which the “soluble on expression in E. coli” value was “not soluble”.
As to “QGLVPQGQTQVLQGGNKVPVVNIADPNSGGVSHNKFQQFNVANPGVVFNNGLTDGVSRIGGALTKNPNLTRQASAILAEVTDTSPSRLAGTLEVYGKGADLIIANPNGISVNGLSTLNASNLTLTTGRPSVNGGRIGLDVQQGTVTIERGGVNATGLGYFDVVARLVKLQGAVSSKQGKPLADIAVVAGANRYDHATRRATPIAAGARGAAAGAYAIDGTAAGAMYGKHITLVSSDSGLGVRQLGSLSSPSAITVSSQGEIALGDATVQRGPLSLKGAGVVSAGKLASGGGAVNVAGGGAV”, the “soluble on expression in E. coli” value is reported as “soluble”.
To “EKVKNSDYTFEVDFEGPFFPIVEGVNSFGKRMYRVAPQVLRVPLEKPETRVISDIKNGEVLVYVFIQSPEGVVPVSLNLEGKRFRFFNLEGKWICVFKSFLEDGAHELEITFNGPYGYTFSLKKEIYVIKRVAVPMRGEDGAFDYTVFAEHVVKRGETLWSIANQYGVRVGDIVLINRLEDPDRIVAGQVLKIGRVYFRENPVTIVVNLFSSKLALYYDGVLLKVYPVALGRSDATPPGRYWVLRKEIDPALYWFGEYISPRTPLNGLGTRYLQLSDPTYAIHGTSKPWEIGKRISHGCIRMFNRDVEEIDAFAGVGTEVVVVKEDKEFPERIY” belongs “not soluble”; to “MTTTDKQLLYVRTEMTIPGVGTSIHIAELEPTSTTHCTLHRILELDPSNTIRGAAHGNAVAGMAAAPERTVPHPNSYANFPDITATHLLQEEFEVLWAEAVAKFSELR”, “not soluble”.
The entry for “MELQDLELQLEERLLGLEEQLRAVRMPSPFRSSALMGMCGSRSTDNLSCPSPLNVMEPVTELMQEQSYLKSELGLGLGEMGFEIPPGESSESVFSKQRSESSSICSGPSHANRRTGVPSTASVGKSKTPLVARKKVFRASVALTPTAPSRTGSVQTPPDLESSEEVDAAEGAPEVVGPKSESEVEEGHGKLPSMPAAEEMHKNVEQDELQQVIREIKESIVGEIRREIVSGLLAAVSSSKASNSKQDYHLEHHHHHH” is “not soluble”.
For “MGSDKIHHHHHHMRILIRADGGRDIGMGHIMRTLTLARELNKYFEVIYVCKTENEDRKTSVNGKYAKGIHKILSSGFKVKIVRENNMVEDLYEIKGDILITDSYDVNEEYFKKTSEMFHKTIYIDDMCLYDFKDVDMIINQNINADNLKYDAAGNKSLLLGCRYVMLRDEFKDLGAKIIRRKVRDVMITTGGADPFLLTLKLLYYLKQENYNFHVVVGSSFDDIYVEKLKTYEELKNINFYYNANMKELMKKCDACISAAGSTLYELCSVGVPSLSITVAENQSKAAEKFDALKIIKNLGWHNELTREKVLEEINSLSNDYNRRKNVSMTSQSIIDGMGTQRIVEKILDMV”, the “soluble on expression in E. coli” value is “not soluble”.
To “MWDLETDRVLNEIKTRNARKVLFQAPEGLKRAVEKEIEFLKTKIDAELMIWGETCFGACDLCDEEVTILGIDLIIHYGHEELSYVHSEIPVVFVHAYFKENEYFLKDVENILEKMENPTVTTTIQFKKALSKFNPVVILGCRAPVDNAENILFVGTGRFHPLMMAYKLKKTVKIYNPITREISEISDQEIKKLIKLRIGRVSKLLLNPPKKIGVVLSTKKGQCRLKSFENVIELLKKNNIEYIPIILNNLSQSYLFYKVDAYVICACPRIVMDDYQNYESTLLTPEELRMYLSNDFEYKFDEILENNFYLEHHHHHH” belongs “not soluble”; to “MGSDKIHHHHHHMIFVGCSGWSYEEWNGVFYPKSKINKLKFYSTMFNTVEVNSTFYREINNDIINRWIETVRGKNFIFSIKVPQNITHKAILEKDSNSKSLYETFIDKTVRPIRNARMLGAVLVQLPPSFNSNLQTELLDTICCENEYRTAVEVRNKDLYSNEELRKELEKRGIAIVDVDSTEHPLSNLNSGLKWSYVRLHGRAQLGWKSQNPYDYRYSEQEISDLSSKIMAKNYDEIFVYFNNHPRGSAPINALKMASCLGISNNWFF”, “not soluble”; to “MTSSPPSFMSYEDRIQEGDTVIVYVTYGQMVPTIVKRGQTLMMKYGALRHEFIIGKRWGQRLSATAGYVYILRPTSDLWTRALPRRTQILYTADCAQILSLLDAKPGSVICESGTGSGSLSHAIALTVAPTGHLYTHDIDETRTHKVLEEFKVHGLGSVTTAVVRNVCTSGFHVENAADGVFLDVPAPWEAIPFAAKSIFRARGGRLVSFSPCLEQVQRACLAMAAAGFVSIETIELVPEQKKIVSQHRQTLEEFEELGDAYPKERKRNVDGTIVEQSSSAIPRITIAIVYPYSQPTHTGYLTHATMLPVAE”, “not soluble”.
